The supplement of paper PMC5998384

Experiments:
[1] = test system: HeLa Kyoto; assay: solubility in G1/S (NP-40 vs SDS abundance) (log2 ratio); higher = more soluble; conditions: cell cycle stage: G1/S
[2] = test system: HeLa Kyoto; assay: melting temperature (median over replicates), in situ; higher = more thermally stable
[3] = test system: HeLa Kyoto; assay: solubility change mitosis vs G1/S (difference of NP-40 vs SDS log2 ratios) (log2 ratio difference); higher = more soluble in mitosis
[4] = test system: HeLa Kyoto; assay: thermal stability score vs G1/S (z-score of summed log2 fold changes over temperatures); higher = more thermally stable than in G1/S
[5] = cell cycle stage: early G1 (4.5 h after nocodazole release)
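Throughout, for melting temperature (median over replicates), in situ: HeLa Kyoto cells synchronized by double thymidine or nocodazole block, proteins quantified by TMT10plex mass spectrometry, three independent biological replicates.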
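Throughout, for solubility change mitosis vs G1/S (difference of NP-40 vs SDS log2 ratios): synchronized HeLa Kyoto cells (double thymidine block for G1/S, nocodazole release for mitosis), protein amounts in NP-40 versus SDS lysates quantified by mass spectrometry, three biological replicates.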
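Throughout, for solubility in G1/S (NP-40 vs SDS abundance): HeLa Kyoto cells arrested at G1/S by double thymidine block, proteins quantified by TMT10plex mass spectrometry in mild NP-40 versus SDS extracts, three biological replicates.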
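Throughout, for thermal stability score vs G1/S (z-score of summed log2 fold changes over temperatures): synchronized HeLa Kyoto cells, proteins quantified by TMT10plex mass spectrometry, three biological replicates, mitosis taken 0.5 h after nocodazole release, G1/S directly after double thymidine block.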

## MDGRTPRPQDAPARRKPKAKAPLPPAETKYTDVSSAADSVESTAFIMEQKENMIDKDVELSVVLPGDIIKSTTVHGSKPMMDLLIFLCAQYHLNPSSYTIDLLSAEQNHIKFKPNTPIGMLEVEKVILKPKMLDKKKPTPIIPEKTVRVVINFKKTQKTIVRVSPHASLQELAPIICSKCEFDPLHTLLLKDYQSQEPLDLTKSLNDLGLRELYAMDVNRESCQISQNLDIMKEKENKGFFSFFQRSKKKRDQTASAPATPLVNKHRPTFTRSNTISKPYISNTLPSDAPKKRRAPLPPMPASQSVPQDLAHIQERPASCIVKSMSVDETDKSPCEAGRVRAGSLQLSSMSAGNSSLRRTKRKAPSPPSKIPPHQSDENSRVTALQPVDGVPPDSASEANSPEELSSPAGISSDYSLEEIDEKEELSEVPKVEAENISPKSQDIPFVSTDIINTLKNDPDSALGNGSGEFSQNSMEEKQETKSTDGQEPHSVVYDTSNGKKVVDSIRNLKSLGPNQENVVQNEIIVYPENTEDNMKNGVKKTEINVEGVAKNNNIDMEVERPSNSEAHETDTAISYKENHLAASSVPDQKLNQPSAEKTKDAAIQTTPSCNSFDGKHQDHNLSDSKVEECVQTSNNNISTQHSCLSSQDSVNTSREFRSQGTLIIHSEDPLTVKDPICAHGNDDLLPPVDRIDKNSTASYLKNYPLYRQDYNPKPKPSNEITREYIPKIGMTTYKIVPPKSLEISKDWQSETIEYKDDQDMHALGKKHTHENVKETAIQTEDSAISESPEEPLPNLKPKPNLRTEHQVPSSVSSPDDAMVSPLKPAPKMTRDTGTAPFAPNLEEINNILESKFKSRASNAQAKPSSFFLQMQKRVSGHYVTSAAAKSVHAAPNPAPKELTNKEAERDMLPSPEQTLSPLSKMPHSVPQPLVEKTDDDVIGQAPAEASPPPIAPKPVTIPASQVSTQNLKTLKTFGAPRPYSSSGPSPFALAVVKRSQSFSKERTESPSASALVQPPANTEEGKTHSVNKFVDIPQLGVSDKENNSAHNEQNSQIPTPTDGPSFTVMRQSSLTFQSSDPEQMRQSLLTAIRSGEAAAKLKRVTIPSNTISVNGRSRLSHSMSPDAQDGH [COBLL1]
[1]
  solubility in G1/S (log2): 0.0471
[2]; cell cycle stage: G1/S
  melting temperature: 50.5 °C
[2]; cell cycle stage: mitosis
  melting temperature: 50.8 °C
[3]
  solubility change mitosis (log2): -0.0197
[4]; [5]
  thermal stability score: -0.155
[4]; cell cycle stage: mitosis
  thermal stability score: -0.336

## MDHYDSQQTNDYMQPEEDWDRDLLLDPAWEKQQRKTFTAWCNSHLRKAGTQIENIEEDFRDGLKLMLLLEVISGERLAKPERGKMRVHKISNVNKALDFIASKGVKLVSIGAEEIVDGNVKMTLGMIWTIILRFAIQDISVEETSAKEGLLLWCQRKTAPYKNVNIQNFHISWKDGLGFCALIHRHRPELIDYGKLRKDDPLTNLNTAFDVAEKYLDIPKMLDAEDIVGTARPDEKAIMTYVSSFYHAFSGAQKAETAANRICKVLAVNQENEQLMEDYEKLASDLLEWIRRTIPWLENRVPENTMHAMQQKLEDFRDYRRLHKPPKVQEKCQLEINFNTLQTKLRLSNRPAFMPSEGRMVSDINNAWGCLEQVEKGYEEWLLNEIRRLERLDHLAEKFRQKASIHEAWTDGKEAMLRQKDYETATLSEIKALLKKHEAFESDLAAHQDRVEQIAAIAQELNELDYYDSPSVNARCQKICDQWDNLGALTQKRREALERTEKLLETIDQLYLEYAKRAAPFNNWMEGAMEDLQDTFIVHTIEEIQGLTTAHEQFKATLPDADKERLAILGIHNEVSKIVQTYHVNMAGTNPYTTITPQEINGKWDHVRQLVPRRDQALTEEHARQQHNERLRKQFGAQANVIGPWIQTKMEEIGRISIEMHGTLEDQLSHLRQYEKSIVNYKPKIDQLEGDHQLIQEALIFDNKHTNYTMEHIRVGWEQLLTTIARTINEVENQILTRDAKGISQEQMNEFRASFNHFDRDHSGTLGPEEFKACLISLGYDIGNDPQGEAEFARIMSIVDPNRLGVVTFQAFIDFMSRETADTDTADQVMASFKILAGDKNYITMDELRRELPPDQAEYCIARMAPYTGPDSVPGALDYMSFSTALYGESDL [ACTN1]
[1]
  solubility in G1/S (log2): -0.1
[2]; cell cycle stage: G1/S
  melting temperature: 58.3 °C
[2]; cell cycle stage: mitosis
  melting temperature: 55.9 °C
[3]
  solubility change mitosis (log2): 0.09
[4]; [5]
  thermal stability score: -0.623
[4]; cell cycle stage: mitosis
  thermal stability score: -1.86

## MDISTRSKDPGSAERTAQKRKFPSPPHSSNGHSPQDTSTSPIKKKKKPGLLNSNNKEQSELRHGPFYYMKQPLTTDPVDVVPQDGRNDFYCWVCHREGQVLCCELCPRVYHAKCLRLTSEPEGDWFCPECEKITVAECIETQSKAMTMLTIEQLSYLLKFAIQKMKQPGTDAFQKPVPLEQHPDYAEYIFHPMDLCTLEKNAKKKMYGCTEAFLADAKWILHNCIIYNGGNHKLTQIAKVVIKICEHEMNEIEVCPECYLAACQKRDNWFCEPCSNPHPLVWAKLKGFPFWPAKALRDKDGQVDARFFGQHDRAWVPINNCYLMSKEIPFSVKKTKSIFNSAMQEMEVYVENIRRKFGVFNYSPFRTPYTPNSQYQMLLDPTNPSAGTAKIDKQEKVKLNFDMTASPKILMSKPVLSGGTGRRISLSDMPRSPMSTNSSVHTGSDVEQDAEKKATSSHFSASEESMDFLDKSTASPASTKTGQAGSLSGSPKPFSPQLSAPITTKTDKTSTTGSILNLNLDRSKAEMDLKELSESVQQQSTPVPLISPKRQIRSRFQLNLDKTIESCKAQLGINEISEDVYTAVEHSDSEDSEKSDSSDSEYISDDEQKSKNEPEDTEDKEGCQMDKEPSAVKKKPKPTNPVEIKEELKSTSPASEKADPGAVKDKASPEPEKDFSEKAKPSPHPIKDKLKGKDETDSPTVHLGLDSDSESELVIDLGEDHSGREGRKNKKEPKEPSPKQDVVGKTPPSTTVGSHSPPETPVLTRSSAQTSAAGATATTSTSSTVTVTAPAPAATGSPVKKQRPLLPKETAPAVQRVVWNSSSKFQTSSQKWHMQKMQRQQQQQQQQNQQQQPQSSQGTRYQTRQAVKAVQQKEITQSPSTSTITLVTSTQSSPLVTSSGSMSTLVSSVNADLPIATASADVAADIAKYTSKMMDAIKGTMTEIYNDLSKNTTGSTIAEIRRLRIEIEKLQWLHQQELSEMKHNLELTMAEMRQSLEQERDRLIAEVKKQLELEKQQAVDETKKKQWCANCKKEAIFYCCWNTSYCDYPCQQAHWPEHMKSCTQSATAPQQEADAEVNTETLNKSSQGSSSSTQSAPSETASASKEKETSAEKSKESGSTLDLSGSRETPSSILLGSNQGSDHSRSNKSSWSSSDEKRGSTRSDHNTSTSTKSLLPKESRLDTFWD [ZMYND8]
[1]
  solubility in G1/S (log2): -0.387
[2]; cell cycle stage: G1/S
  melting temperature: 48.5 °C
[2]; cell cycle stage: mitosis
  melting temperature: 50.2 °C
[3]
  solubility change mitosis (log2): 0.163
[4]; [5]
  thermal stability score: 1.53
[4]; cell cycle stage: mitosis
  thermal stability score: 3.16

## MDKVCAVFGGSRGIGRAVAQLMARKGYRLAVIARNLEGAKAAAGDLGGDHLAFSCDVAKEHDVQNTFEELEKHLGRVNFLVNAAGINRDGLLVRTKTEDMVSQLHTNLLGSMLTCKAAMRTMIQQQGGSIVNVGSIVGLKGNSGQSVYSASKGGLVGFSRALAKEVARKKIRVNVVAPGFVHTDMTKDLKEEHLKKNIPLGRFGETIEVAHAVVFLLESPYITGHVLVVDGGLQLIL [CBR4]
[1]
  solubility in G1/S (log2): 0.0654
[2]; cell cycle stage: G1/S
  melting temperature: 54 °C
[2]; cell cycle stage: mitosis
  melting temperature: 55.2 °C
[3]
  solubility change mitosis (log2): -0.0343
[4]; [5]
  thermal stability score: 1.14
[4]; cell cycle stage: mitosis
  thermal stability score: -0.318

## MDLAAAAEPGAGSQHLEVRDEVAEKCQKLFLDFLEEFQSSDGEIKYLQLAEELIRPERNTLVVSFVDLEQFNQQLSTTIQEEFYRVYPYLCRALKTFVKDRKEIPLAKDFYVAFQDLPTRHKIRELTSSRIGLLTRISGQVVRTHPVHPELVSGTFLCLDCQTVIRDVEQQFKYTQPNICRNPVCANRRRFLLDTNKSRFVDFQKVRIQETQAELPRGSIPRSLEVILRAEAVESAQAGDKCDFTGTLIVVPDVSKLSTPGARAETNSRVSGVDGYETEGIRGLRALGVRDLSYRLVFLACCVAPTNPRFGGKELRDEEQTAESIKNQMTVKEWEKVFEMSQDKNLYHNLCTSLFPTIHGNDEVKRGVLLMLFGGVPKTTGEGTSLRGDINVCIVGDPSTAKSQFLKHVEEFSPRAVYTSGKASSAAGLTAAVVRDEESHEFVIEAGALMLADNGVCCIDEFDKMDVRDQVAIHEAMEQQTISITKAGVKATLNARTSILAAANPISGHYDRSKSLKQNINLSAPIMSRFDLFFILVDECNEVTDYAIARRIVDLHSRIEESIDRVYSLDDIRRYLLFARQFKPKISKESEDFIVEQYKHLRQRDGSGVTKSSWRITVRQLESMIRLSEAMARMHCCDEVQPKHVKEAFRLLNKSIIRVETPDVNLDQEEEIQMEVDEGAGGINGHADSPAPVNGINGYNEDINQESAPKASLRLGFSEYCRISNLIVLHLRKVEEEEDESALKRSELVNWYLKEIESEIDSEEELINKKRIIEKVIHRLTHYDHVLIELTQAGLKGSTEGSESYEEDPYLVVNPNYLLED [MCM6]
[1]
  solubility in G1/S (log2): -0.0881
[2]; cell cycle stage: G1/S
  melting temperature: 50.6 °C
[2]; cell cycle stage: mitosis
  melting temperature: 50.7 °C
[3]
  solubility change mitosis (log2): -0.0695
[4]; [5]
  thermal stability score: 3.18
[4]; cell cycle stage: mitosis
  thermal stability score: 4.76

## MDLENKVKKMGLGHEQGFGAPCLKCKEKCEGFELHFWRKICRNCKCGQEEHDVLLSNEEDRKVGKLFEDTKYTTLIAKLKSDGIPMYKRNVMILTNPVAAKKNVSINTVTYEWAPPVQNQALARQYMQMLPKEKQPVAGSEGAQYRKKQLAKQLPAHDQDPSKCHELSPREVKEMEQFVKKYKSEALGVGDVKLPCEMDAQGPKQMNIPGGDRSTPAAVGAMEDKSAEHKRTQYSCYCCKLSMKEGDPAIYAERAGYDKLWHPACFVCSTCHELLVDMIYFWKNEKLYCGRHYCDSEKPRCAGCDELIFSNEYTQAENQNWHLKHFCCFDCDSILAGEIYVMVNDKPVCKPCYVKNHAVVCQGCHNAIDPEVQRVTYNNFSWHASTECFLCSCCSKCLIGQKFMPVEGMVFCSVECKKRMS [TES]
[1]
  solubility in G1/S (log2): 0.0767
[2]; cell cycle stage: G1/S
  melting temperature: 52 °C
[2]; cell cycle stage: mitosis
  melting temperature: 52.3 °C
[3]
  solubility change mitosis (log2): -0.111
[4]; [5]
  thermal stability score: -0.92
[4]; cell cycle stage: mitosis
  thermal stability score: -1.54

## MDLGAITKYSALHAKPNGLILQYGTAGFRTKAEHLDHVMFRMGLLAVLRSKQTKSTIGVMVTASHNPEEDNGVKLVDPLGEMLAPSWEEHATCLANAEEQDMQRVLIDISEKEAVNLQQDAFVVIGRDTRPSSEKLSQSVIDGVTVLGGQFHDYGLLTTPQLHYMVYCRNTGGRYGKATIEGYYQKLSKAFVELTKQASCSGDEYRSLKVDCANGIGALKLREMEHYFSQGLSVQLFNDGSKGKLNHLCGADFVKSHQKPPQGMEIKSNERCCSFDGDADRIVYYYHDADGHFHLIDGDKIATLISSFLKELLVEIGESLNIGVVQTAYANGSSTRYLEEVMKVPVYCTKTGVKHLHHKAQEFDIGVYFEANGHGTALFSTAVEMKIKQSAEQLEDKKRKAAKMLENIIDLFNQAAGDAISDMLVIEAILALKGLTVQQWDALYTDLPNRQLKVQVADRRVISTTDAERQAVTPPGLQEAINDLVKKYKLSRAFVRPSGTEDVVRVYAEADSQESADHLAHEVSLAVFQLAGGIGERPQPGF [PGM3]
[1]
  solubility in G1/S (log2): 0.186
[2]; cell cycle stage: G1/S
  melting temperature: 51.4 °C
[2]; cell cycle stage: mitosis
  melting temperature: 51.2 °C
[3]
  solubility change mitosis (log2): -0.0835
[4]; [5]
  thermal stability score: -0.282
[4]; cell cycle stage: mitosis
  thermal stability score: -0.735
